Data taken from publication PMC3582033 (Cell, 2011).

Key:
[1] = biological target: H3(1-28)K9me3K18ac histone peptide (UniProt P68431 2-29, trimethyl-lysine at K9; acetyl-lysine at K18); assay: ITC
[2] = biological target: H3(1-28) with acetylated K18 (UniProt P68431 2-29, acetyl-lysine at K18); assay: ITC

- fold enhancement of binding over unmodified H3(1-28) [1]: 3.5 fold
- fold enhancement of binding over unmodified H3(1-28) [2]: 2.3 fold
B1: TRIM33 PHD-Bromo cassette (domain or fragment)
chain: DDDPNEDWCAVCQNGGDLLCCEKCPKVFHLTCHVPTLLSFPSGDWICTFCRDIGKPEVEYDCDNLQHSKKGKTAQGLSPVDQRKCERLLLYLYCHELSIEFQEPVPASIPNYYKIIKKPMDLSTVKKKLQKKHSQHYQIPDDFVADVRLIFKNCERFNEMMKVVQVYADTQEINLKADSEVAQAGKAVALYFEDKLTEIYSDRTFA
